Measured values taken from patent publication US8329429B2, “Method of enhancing recombinant protein production” (Induce Biologics Inc., priority 2007, dated 2012).

Columns and labels:
[1] = test system: CHO-BMP-2 cells; type: cell-based, Chinese hamster
Protocol: Cell viability was assessed at each media collection using a ViCell cell viability analyzer (Beckman) following manufacturer's instructions.

[2] = test system: CHO-hBMP-7 cells; experiment: ELISA for hBMP-7 in conditioned medium from CHO-hBMP-7 cells incubated with 9DR; type: cell-based, Chinese hamster; settings: 24 hours, nutrient control
Protocol: Cell lines expressing the hBMP-7 transgene were prepared as per the methods described in Example 1.
Stable CHO cell lines expressing wild type BMP-7 cDNA were seeded into single wells of 24 well plates and cultured in the presence of increasing concentrations of the furin inhibitor 9DR. The conditioned medium was collected and aliquots were assayed for the presence of […] by ELISA. The amount of proBMP-7 present in the samples was estimated by western blot. Other aliquots of conditioned media were diluted with fresh medium and added to C2C12 cells to test for in vitro osteoinductive biological activity.

[3] = test system: C2C12 cells; experiment: C2C12 alkaline phosphatase assay of rhBMP after PreScission digestion; type: cell-based; settings: for ALP activity (U/μg protein) mean ± SD: n=4
Description: Alkaline phosphatase induction in C2C12 cells: The activity of recombinant hBMP-2 protein is quantitated based upon induction of alkaline phosphatase in in vitro cultured C2C12 cells, as has been described (see, e.g., Peel et al. J Craniofacial Surg. 2003; 14:284-291 and Hu et al. Growth Factors 2004; 22:29033).
C2C12 cells (ATCC accession number CRL-1772, Manassas, Va.) are passaged before confluent and resuspended at 0.5×10^5 cells/ml in MEM supplemented with 15% heat-inactivated fetal bovine serum, antibiotics and 50 μg/ml ascorbic acid. One ml of cell suspension is seeded per well of a 24 well tissue culture plate (BD Falcon, Fisher Scientific Cat #08-772-1). An aliquot of test BMP-2 sample is added and the cultures maintained at 37° C. and 5% CO2. Test BMP-2 samples included conditioned media, purified recombinant hBMP-2 isolated from conditioned media by heparin affinity chromatography, and as a positive control a commercially available purified recombinant hBMP-2 (R&D Systems, Minneapolis, USA). Control cultures (cultured in media without added BMP-2 sample) are cultured for 2 to 7 days. Medium is changed every two days.
At harvest cultures are rinsed with Tris buffered saline (20 mM Tris, 137 mM NaCl, pH 7.4) and M-Per lysis buffer (Pierce Biotechnology Inc., Rockford, Ill., catalogue #78501) is added. The cell layer is scraped into Eppendorf tubes and sonicated. The lysate is centrifuged at 5000×g at 5° C. for 10 minutes, and the supernatant assayed for alkaline phosphatase (ALP) by monitoring the hydrolysis of nitrophenol phosphate in alkaline buffer (Sigma-Aldrich, St. Louis Mo., catalog P5899) as described in Peel et al. J Craniofacial Surg. 2003; 14:284-291 or by using the Alkaline Phosphatase detection kit, Fluorescence (Sigma-Aldrich, catalogue #APF) according to manufacturer's instructions. To normalize the ALP activity the cellular protein content in each well is also assayed using the Coomasie (Bradford) Protein Assay (Pierce Biotechnology Inc., catalogue #23200). The normalized ALP activity for each sample is calculated by dividing the ALP activity per well by the protein content per well. An activity score is calculated by dividing the ALP activity for each sample by the mean ALP activity of the control and is compared to the score achieved by the positive BMP control.
Preparation of test materials: PreScission protease was obtained from Amersham Biosciences (GE Healthcare, Buckinghamshire, U.K) and was prepared according to the manufacturer's instructions. Recombinant hBMP-2 and rhBMP-7 (both CHO cell produced) were obtained from R&D Systems. The rhBMP samples were resuspended in 4 mM HCl to a final concentration of 10 μg/ml. Bovine serum albumin (BSA) was not included so that the only substrate for the protease was BMP. The cleavage buffer was prepared (50 mM Tris-HCl, 150 mM NaCl, 1 mM EDTA, pH 7).
Assessment of activity: Samples underwent digestion at room temperature for 6 hours. Reactions were stopped by freezing at −20° C. Digestion samples were diluted in alpha MEM+15% FBS and tested for BMP activity using the C2C12 assay described in Example 1.

Molecule: N=C(N)NCCC[C@@H](N)C(=O)N[C@H](CCCNC(=N)N)C(=O)N[C@H](CCCNC(=N)N)C(=O)N[C@H](CCCNC(=N)N)C(=O)N[C@H](CCCNC(=N)N)C(=O)N[C@H](CCCNC(=N)N)C(=O)N[C@H](CCCNC(=N)N)C(=O)N[C@H](CCCNC(=N)N)C(=O)N[C@H](CCCNC(=N)N)C(N)=O [9DR, nona-D-arginine amide]
- effect on cell viability [1]: did not affect cell viability

Molecule: N=C(N)NCCC[C@@H](N)C(=O)O [DR, D arginine]
- mature hBMP-7 in medium versus medium only [2]: no difference

B1: rhBMP-7: recombinant human BMP-7, CHO cell produced, obtained from R&D Systems (protein)
chain: STGSKQRSQNRSKTPKNQEALRMANVAENSSSDQRQACKKHELYVSFRDLGWQDWIIAPEGYAAYYCEGECAFPLNSYMNATNHAIVQTLVHFINPETVPKPCCAPTQLNAISVLYFDDSSNVILKKYRNMVVRACGCH
- ALP activity (U/μg protein) mean ± SD ([3]; group 2: 20 μl rhBMP (10 μg/ml), no protease, no cleavage buffer (unincubated)): 7.1 ± 0.5 U/μg protein
- ALP activity (U/μg protein) mean ± SD ([3]; group 3: 20 μl rhBMP + 15 μl PreScission protease + 165 μl cleavage buffer, room temperature 6 hours): 2.9 ± 0.2 U/μg protein
- ALP activity (U/μg protein) mean ± SD ([3]; group 4: 20 μl rhBMP + 180 μl cleavage buffer alone, room temperature 6 hours): 4.0 ± 0.3 U/μg protein
- activity after PreScission digestion ([3]; room temperature for 6 hours): remained active
- activity after PreScission digestion compared to control BMP incubated in cleavage buffer alone ([3]; room temperature for 6 hours): No loss of activity
